Test results as given in patent US20240117038A1 (Ablynx, published 2024).
Values belong to the binder of their own block, whether it stands above or below them.

Key:
cynomolgus CX3CR1 [1] = biological target: T1, cynomolgus CX3CR1 (cynomolgus monkey (Macaca fascicularis), UniProt P49238 1-355 (human entry)); test: competition flow cytometry vs huCX3CL1-AF647 (2E-10 M) on CHO K1 cyno CX3CR1 cells, 30 uM HSA
T1 construct: Overexpressed on CHO K1 cells; also called cyno CX3CR1; cyCX3CR1
T1 chain: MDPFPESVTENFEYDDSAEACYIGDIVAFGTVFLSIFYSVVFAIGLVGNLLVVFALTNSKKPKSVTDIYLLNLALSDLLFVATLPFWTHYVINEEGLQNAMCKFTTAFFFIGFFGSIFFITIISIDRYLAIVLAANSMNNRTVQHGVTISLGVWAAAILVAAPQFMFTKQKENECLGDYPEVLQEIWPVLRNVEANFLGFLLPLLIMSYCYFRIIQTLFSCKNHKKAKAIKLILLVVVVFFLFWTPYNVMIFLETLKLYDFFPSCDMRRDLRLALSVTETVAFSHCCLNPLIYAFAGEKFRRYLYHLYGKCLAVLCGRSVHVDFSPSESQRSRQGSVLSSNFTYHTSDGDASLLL
Protocol: (§1) CHO cells overexpressing human or cyno CX3CR1 were generated using techniques known in the art. Cells were harvested and resuspended in assay buffer (PBS, 2% FBS, 0.05% NaN3). The cells were seeded in 384-well Bio-One V-bottom plates (Greiner, Cat. No. 781280), with a total of 2E04 cells seeded per well. After washing, ISVD proteins (starting from 250 nM, 3-fold dilution, 11 points, in assay buffer) were premixed with 30 μM HSA (Sigma-Aldrich, Cat. No. A8763) and human CX3CL1 labelled with AF647 (R&D Systems, Cat. No. 365-FR; labelled in house) at a final concentration of 2E-10 M (˜EC30) and added to the cells for 4 hours at 4° C. Plates were washed 3 times and cells were resuspended in PI (Miltenyi Biotec, Cat. No. 130-093-233, 1000-fold diluted in assay buffer). Cell suspensions were analysed with iQue Screener PLUS or iQue 3(Intellicyt). The IC50s were estimated by dose response modelling. Curves were fit using 4 parameter logistic regression in GraphPad (GraphPad Software Inc.).

human CX3CR1 [2] = biological target: T2, human CX3CR1 (human, UniProt P49238 1-355); test: competition flow cytometry vs huCX3CL1-AF647 (2E-10 M) on CHO K1 human CX3CR1 cells, 30 uM HSA
T2 construct: Overexpressed on CHO K1, Ba/F3 or HEK293T cells; also called huCX3CR1; hCX3CR1
T2 sequence: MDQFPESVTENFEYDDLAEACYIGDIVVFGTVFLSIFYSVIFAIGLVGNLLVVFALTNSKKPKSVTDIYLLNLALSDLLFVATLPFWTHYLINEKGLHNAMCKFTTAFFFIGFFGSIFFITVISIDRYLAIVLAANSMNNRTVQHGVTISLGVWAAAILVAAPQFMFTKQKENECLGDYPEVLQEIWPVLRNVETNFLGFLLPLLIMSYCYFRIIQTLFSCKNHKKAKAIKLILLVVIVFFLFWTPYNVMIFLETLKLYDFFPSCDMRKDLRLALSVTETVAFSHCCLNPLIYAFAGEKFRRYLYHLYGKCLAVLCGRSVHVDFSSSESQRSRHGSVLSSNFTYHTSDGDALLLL
Protocol: as §1

human CX3CR1 [3] = biological target: T2, human CX3CR1; test: flow cytometry on CHO K1 huCX3CR1 cells, 30 uM HSA
Protocol: (§2) CHO cells overexpressing human or cynomolgus CX3CR1 were generated using techniques known in the art. Cells were harvested and resuspended in assay buffer (PBS, 2% FBS, 0.05% NaN3) and seeded separately in 384-well Bio-One V-bottom plates (Greiner, Cat. No. 781280), with a total of 2E04 cells seeded per well. After washing, serial dilutions of multivalent ISVD construct (starting from 250 nM, 3-fold dilution, 11 points, diluted in assay buffer), were added and incubated for 4 hours at 4° C. Binding was performed in the presence of 30 uM HSA (Sigma-Aldrich, Cat. No. A8763). Plates were then washed 3 times and cells were incubated with an anti-VHH mouse antibody (3300-fold diluted in assay buffer) for 30 minutes at 4′° C. […] Plates were finally washed 3 times and cells were resuspended in PI (Miltenyi Biotec, Cat. No. 130-093-233, 1000-fold diluted in assay buffer). Cell suspensions were analyzed with iQue Screener PLUS (Intellicyt). EC50s were estimated by dose response modelling. Curves were fit using 4 parameter logistic regression in GraphPad (GraphPad Software Inc.). A purified anti-human CX3CR1 antibody [K0124E1] (BioLegend, Cat. No. 355701/355702) was used as positive control to detect CX3CR1 expression on the cell surface.

human CX3CR1 [4] = biological target: T2, human CX3CR1; test: competition flow cytometry vs soluble huCX3CL1-AF647 on CHO K1 huCX3CR1 cells, 30 uM HSA
cynomolgus CX3CR1 [5] = biological target: T1, cynomolgus CX3CR1; test: flow cytometry on CHO K1 cyCX3CR1 cells, 30 uM HSA
Protocol: as §2

cynomolgus CX3CR1 [6] = biological target: T1, cynomolgus CX3CR1; test: competition flow cytometry vs soluble huCX3CL1-AF647 on CHO K1 cyCX3CR1 cells, 30 uM HSA
human CX3CR1 V249I/T280M = biological target: T3, human CX3CR1 V249I/T280M (human, UniProt P49238 1-355); test: flow cytometry, AF-647 labelled soluble CX3CL1 on transiently transfected HEK293T cells, human CX3CR1 V249I/T280M
T3 construct: Transiently transfected in HEK293T cells (pcDNA3.1); also called huCX3CR1 variant V249I and T280M
T3 chain: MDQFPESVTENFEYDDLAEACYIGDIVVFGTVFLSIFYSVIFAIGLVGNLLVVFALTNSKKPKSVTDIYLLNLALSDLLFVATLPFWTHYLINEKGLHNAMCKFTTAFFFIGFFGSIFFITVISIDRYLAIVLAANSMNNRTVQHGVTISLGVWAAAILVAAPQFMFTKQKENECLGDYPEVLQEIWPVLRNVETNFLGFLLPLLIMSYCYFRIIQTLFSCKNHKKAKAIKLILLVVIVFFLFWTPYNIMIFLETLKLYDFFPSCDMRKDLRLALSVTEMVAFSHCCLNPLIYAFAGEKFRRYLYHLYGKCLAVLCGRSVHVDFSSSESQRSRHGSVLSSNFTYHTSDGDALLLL

human CX3CR1 T280M = biological target: T4, human CX3CR1 T280M (human, UniProt P49238 1-355); test: flow cytometry, AF-647 labelled soluble CX3CL1 on transiently transfected HEK293T cells, human CX3CR1 T280M
T4 construct: Transiently transfected in HEK293T cells (pcDNA3.1); also called huCX3CR1 variant T280M (Rs3732378)
T4 sequence: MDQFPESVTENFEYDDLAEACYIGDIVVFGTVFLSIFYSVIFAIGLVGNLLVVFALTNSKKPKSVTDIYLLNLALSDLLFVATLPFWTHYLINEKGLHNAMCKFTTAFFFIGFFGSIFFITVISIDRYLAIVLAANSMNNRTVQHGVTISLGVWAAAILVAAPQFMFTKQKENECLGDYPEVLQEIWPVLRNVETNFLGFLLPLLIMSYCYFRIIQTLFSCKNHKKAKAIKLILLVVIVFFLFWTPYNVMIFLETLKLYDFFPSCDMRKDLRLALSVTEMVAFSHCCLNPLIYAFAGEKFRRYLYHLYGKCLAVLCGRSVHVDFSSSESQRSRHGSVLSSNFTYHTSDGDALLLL

human CX3CR1 [7] = biological target: T2, human CX3CR1; test: flow cytometry, AF-647 labelled soluble CX3CL1 on transiently transfected HEK293T cells, human CX3CR1 WT
human CX3CR1 V249I = biological target: T5, human CX3CR1 V249I (human, UniProt P49238 1-355); test: flow cytometry, AF-647 labelled soluble CX3CL1 on transiently transfected HEK293T cells, human CX3CR1 V249I
T5 construct: Transiently transfected in HEK293T cells (pcDNA3.1); also called huCX3CR1 variant V249I (Rs3732379); printed V2491 in the text
T5 sequence: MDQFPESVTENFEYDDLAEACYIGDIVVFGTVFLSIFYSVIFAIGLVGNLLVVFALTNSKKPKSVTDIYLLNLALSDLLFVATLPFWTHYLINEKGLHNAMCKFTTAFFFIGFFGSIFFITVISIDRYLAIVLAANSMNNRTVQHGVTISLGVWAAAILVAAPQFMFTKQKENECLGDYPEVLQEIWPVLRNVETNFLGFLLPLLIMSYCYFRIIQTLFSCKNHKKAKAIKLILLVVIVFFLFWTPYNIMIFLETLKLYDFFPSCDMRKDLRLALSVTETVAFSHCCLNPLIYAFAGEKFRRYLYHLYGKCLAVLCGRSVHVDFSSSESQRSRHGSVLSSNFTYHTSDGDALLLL

mouse CX3CR1 = biological target: T6, mouse CX3CR1 (mouse, UniProt Q9Z0D9 1-354); test: cell-based or functional assay
T6 sequence (looked up): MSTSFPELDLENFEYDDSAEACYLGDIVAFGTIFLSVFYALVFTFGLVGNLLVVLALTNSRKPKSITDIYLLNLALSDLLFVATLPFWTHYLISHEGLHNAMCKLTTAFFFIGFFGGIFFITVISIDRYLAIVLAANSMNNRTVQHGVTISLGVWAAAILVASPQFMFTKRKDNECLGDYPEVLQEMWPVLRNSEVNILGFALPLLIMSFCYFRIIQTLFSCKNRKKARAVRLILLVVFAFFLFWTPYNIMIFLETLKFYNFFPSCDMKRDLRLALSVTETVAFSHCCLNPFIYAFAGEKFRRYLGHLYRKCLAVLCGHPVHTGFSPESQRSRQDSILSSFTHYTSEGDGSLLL

human CX3CR1 [8] = biological target: T2, human CX3CR1; test: cell-based or functional assay

IC50 (cynomolgus CX3CR1 [1]): 2.9 nM
IC50 (human CX3CR1 [2]): 0.48 nM
B1: 66B02_SO (VHH)
VHH: EVQLVESGGGSVQPGGSLRLSCAASGSIFSSTAMAWYRQAPGKRRDLVAAINTVGVTKYADSVKGRFTISRDNAKNTVYLQMNSLRPEDTALYYCTSDPRRGWDTRYWGQGTLVTVSS
notes: Monovalent anti-CX3CR1 ISVD; The oligomerization and Tagg assays used a 3xFLAG-His6 tagged form made in E. coli

IC50 (cynomolgus CX3CR1 [1]): 6 nM
IC50 (human CX3CR1 [2]): 0.89 nM
B2: 54A12_SO (VHH)
VHH: EVQLVESGGGSVQPGGSLRLSCAASGSIFSSTAMAWYRQAPGKQRDLVAVISTVGITKYADSVKGRFTISRDNAKNTVYLQMNSLRPEDTALYYCTSDARRGWDTRYWGQGTLVTVSS
notes: as for B1

EC50 (human CX3CR1 [3]): 0.29 nM
top (human CX3CR1 [3]): 35600
% inhibition (human CX3CR1 [4]): 102%
IC50 (human CX3CR1 [4]): 1.1 nM
EC50 (cynomolgus CX3CR1 [5]): 0.25 nM
top (cynomolgus CX3CR1 [5]): 290000
% inhibition (cynomolgus CX3CR1 [6]): 104%
IC50 (cynomolgus CX3CR1 [6]): 1.2 nM
B3: A041600026 (VHH)
chain: DVQLVESGGGSVQPGGSLRLSCAASGSIFSSTAMAWYRQAPGKRRDLVAAINTVGVTKYADSVKGRFTISRDNAKNTVYLQMNSLRPEDTALYYCTSDPRRGWDTRYWGQGTLVTVSSGGGGSGGGGSGGGGSGGGGSEVQLVESGGGVVQPGGSLRLSCAASGFTFRSFGMSWVRQAPGKGPEWVSSISGSGSDTLYADSVKGRFTISRDNSKNTLYLQMNSLRPEDTALYYCTIGGSLSRSSQGTLVTVSSGGGGSGGGGSGGGGSGGGGSEVQLVESGGGSVQPGGSLRLSCAASGSIFSSTAMAWYRQAPGKRRDLVAAINTVGVTKYADSVKGRFTISRDNAKNTVYLQMNSLRPEDTALYYCTSDPRRGWDTRYWGQGTLVTVSSA
notes: Trivalent ISVD construct; also called 66B02_SO (E1D)-20GS-ALB23002-20GS-66B02_SO-A

EC50 (human CX3CR1 V249I/T280M): 4.2 nM
EC50 (human CX3CR1 T280M): 19 nM
EC50 (human CX3CR1 [7]): 3.3 nM
EC50 (human CX3CR1 V249I): 2.1 nM
EC50, ERK phosphorylation in CHO K1 mCX3CR1 cells (mouse CX3CR1): 2.5 nM
EC50, ERK phosphorylation in CHO K1 huCX3CR1 cells (human CX3CR1 [8]): 2 nM
B4: human CX3CL1/Fraktalkine (ligand, UniProt P78423 25-339, looked up)
chain: QHHGVTKCNITCSKMTSKIPVALLIHYQQNQASCGKRAIILETRQHRLFCADPKEQWVKDAMQHLDRQAAALTRNGGTFEKQIGEVKPRTTPAAGGMDESVVLEPEATGESSSLEPTPSSQEAQRALGTSPELPTGVTGSSGTRLPPTPKAQDGGPVGTELFRVPPVSTAATWQSSAPHQPGPSLWAEAKTSEAPSTQDPSTQASTASSPAPEENAPSEGQRVWGQGQSPRPENSLEREEMGPVPAHTDAFQDWGPGSMAHVSVVPVSSEGTPSREPVASGSWTPKAEEPIHATMDPQRLGVLITPVPDAQAATR
modifications: labelled with AF647 (in house) in the binding and competition assays; unlabelled in the chemotaxis and pERK assays
notes: Bought protein; also called huCX3CL1; huCX3CL1-AF647
